The record followed here is patent US20230002757A1.

A word on the EC50: it is the concentration that produces a half-maximal response.

This experiment concerns the target KLH (Keyhole Limpet Hemocyanin) (keyhole limpet). As to the kind of experiment: ELISA on KLH. In general terms: An ELISA detects its analyte on a solid surface through an enzyme-linked reagent.

B1: NGS602-OLIGO_42 (VHH)
VHH: QVQLVESGGGLVQAGGSLRLSCLFSGTFGIYGMGWFRQAPGKAREFVAGVSRHGLTTQYADSVKGRFTISRDNAKNTMYLQMNSLKPEDTADYYCARSRLSASLLVTASDYDYWGQGTQVTVSS
In turn, B1 showed an EC50 of 0.342 nM. This lies in the sub-nanomolar range.

B2: NGS602-OLIGO_185 (VHH)
VHH: QVQLVESGGGLVQAGGSLRLSCAASGRTSSRYVMGWFRQSPGKEREFVAAISANGRSTNYAGSVNGRFKISRDGAKDKVDLQMNSLKPEDTAVYFCATNMAFSSSSNFPANYDVWGQGTQVTVSS
B2 came in with an EC50 of 0.077 nM.

B3: NGS602-OLIGO_28 (VHH)
VHH: QVQLVESGGGLVRAGGSLRLSCAASGRAFSSYPMGWFRRAPGKEREFVAAISLSGSKQYYVDSVKGRFTISRDNAKNTVSLQMNSLKPEDTAVYYCAALKDGEPPAVDYWGQGTQVTVSS
As to B3, the EC50 worked out at 0.707 nM.

B4: NGS602-OLIGO_186 (VHH)
VHH: QVQLAESGGGLVQAGDSLRLSCAASGRSVSSYAMGWFRQAPGKEREFVAAISWSGESTHYADSVKGRFTISRDNAENTVYLQMNSLKPEDTAVYYCASYLSGHYYFGIGRDPPFGSWGQGTQVTVSS
B4 gave an EC50 of 0.28 nM.

B5: NGS602-OLIGO_149 (VHH)
VHH: QVQLVESGGGLVQAGDSLRLSCAASGRTFSSYAMAWFRRPPGKAREFVALIRWSNGRTAVVDSVKGRFTASRDNAKNTGYLQMDSLKSEDTAVYYCAACDQALDPPRCNDWGQGTQVTVSS
In the case of B5, the EC50 stood at 0.147 nM.

B6: NGS602-OLIGO_359 (VHH)
VHH: QVQLVESGGGLVQPGGSLRLSCAASGYSLSFYAMGWYRQSPGKQREVVARIAGPGVTNYADSVMGRFTISRDNAKNMVYLQMNSLEPEDTAVYYCNAGGTRWSVGDYWGKGTLVTVSS
B6: the concentration giving a half-maximal response (EC50) came to 0.61 nM.

B7: NGS602-OLIGO_31 (VHH)
VHH: QVQLVESGGGLVQAGDSLRLSCTASGTTFDRYHMGWFRQAPGMERHVVAHISWSGANTYVADSMKGRFTISRDNAKNTAYLQINNLKFEDTALYYCAAGSYLAVPGSRWDYWGQGTQVTVSS
The molecule B7 registered a concentration giving a half-maximal response (EC50) of 1.01 nM.

B8: NGS602-OLIGO_12 (VHH)
VHH: QVQLVESGGGSVQAGGSLRLSCAASGRTFGRHVMAWFRQAPGREREFVAAISGNGRVTNYALSMKGRFTISRDNANDMVYLQMDGLKPEDTAVYSCATRMAFDSDSNFPATYDVWGQGTQVTVSS
In turn, B8 had an EC50 of 0.181 nM.

B9: NGS602-OLIGO_30 (VHH)
VHH: QVQLVESGGGTVQAGGSLRLSCAASGLTFGSYAMEWYRQAPGKERELVATISSGGNTHYLASVKGRFTISRDNDKNTLYLQMNSLKPEDTAVYYCAAKYGWTGIWYAPSDYVHLGPGTQVTVSS
B9 returned a half-maximal effective concentration (EC50) of 0.067 nM.

B10: NGS602-OLIGO_152 (VHH)
VHH: QVQLVESGGGLVQAGDSLRLSCAASGDNFSRYTFGWFRQAPGKEREFVAVINWSGSYTYVADSVAGRFTMSRDNAKHLVYLQMDSLNTGDTAVYYCAAHWDYGSSSRRQREYDYWGQGTQVIVSS
The molecule B10 had an EC50 of 0.638 nM. This EC50 lies about 9.5-fold higher than the previous one.

B11: NGS602-OLIGO_205 (VHH)
VHH: RVQLVESGGGLVQPGGSLRLSCTASGLPLNTAAMSWYRQTPGKERELVASISITGDSTTYADSVKGRFTISRDNVKNIVYLQMDILKPEDTAVYYCTRAPWDYKYWGQGTQVTVSS
Consider B11, for which the EC50 came out at 1.16 nM. This EC50 lies about 1.8-fold higher than the previous one.

B12: NGS602-OLIGO_169 (VHH)
VHH: RVQLVESGGGLVQAGGALRLSCVGSGFTFRDTAMAWFRQSPGKEREFVAGFSILSRYADSVKGRFTISRDNDKNTVYLQMNSLKPEDTAVYYCAAGDGTIASVLTTSGVNFWGQGTQVTVSS
As to B12, the EC50 was determined as 0.213 nM.

B13: NGS602-OLIGO_2 (VHH)
VHH: QVQLVESGGGLVQPGGSLRLSCAASESIRSIYAMGWYRQAPGKQRELVALVTDDGSTDYVDSVKGRFTVSRDSAKNTVYLQMNSLKPEDTAVYHCYVEGSTHYDPVREYWGKGTLVTVSS
B13: the EC50 was 1.74 nM.

B14: NGS602-OLIGO_72 (VHH)
VHH: QVELVESGGALVQAGGSLKLSCVDSGRSFSSYVVAWFRQAPGKEREFVARVSASGAIRTYADSVRGRFTISRDNTKATVYLQMNSLKSEDTAVFFCAAGGVSTAVHPFKPTSYDFWGQGTQVTVSV
With B14, the EC50 stood at 0.072 nM.

B15: NGS602-OLIGO_221 (VHH)
VHH: QVQLVESGGGLVQAGESLRLSCVASGRTFSSYAMGWFRQAPGQEREFVARISRRGTNTYYADSVRGRFTISRDNAKNTVYLQMNSLKPEDTAVYYCAADRSDVFEKDPGYYDYWGQGAQVTVSS
Consider B15, for which the EC50 was found to be 220 nM.

B16: NGS602-OLIGO_151 (VHH)
VHH: EVQLVESGGGLVQPGGSLRLSCTASGFTLSTSPVSWARQAPGKGPEWLAGIYSDGRTSNLVSLRGRFTISRDNAKNTVYLQMNSLLPEDTALYYCAIGAAAVGGLRGQGTQVTVSS
B16: the EC50 is 0.409 nM.

B17: NGS602-OLIGO_55 (VHH)
VHH: QVQLTESGGGLVQAGASLRLSCVASPDTPSTYTIAWFRRAPGKERDFVANIARAGTTITYADSVKGRFTISKDNARNTVYLQMNNLTPADTAIYYCAAYSPGSIIARDSTQYRYWGQGTRVTVSE
Take B17: the concentration for a half-maximal effect (EC50) was determined as 0.241 nM.

B18: NGS602-OLIGO_35 (VHH)
VHH: QVSLVESGGGLVQAGGSLRLSCAASGRTFRRSAMGWFRRPPGKEREFVAAITSSGGSIYDPDIAKDRFTISRDNSKTSVYLQMNNLKPEDTAVYYCSLKTTYSGGPYDYTKGPEYDYWGQGTQVTVSS
Molecule B18 displayed an EC50 of 0.291 nM.

B19: NGS602-OLIGO_266 (VHH)
VHH: QVQLVESGGGLVQAGGSLRLSCAASGRTFFTYPMGWFRQAPGKERQFVAAISGNGDSIDYADSVKGRFTISRDNAKNTLYLQMNSLKPEDAALYYCNAVITHDYTRPLFASWGQGTQVTVSS
In turn, B19 displayed an EC50 of 0.195 nM. The EC50 values of the last two molecules are within 1.5-fold of each other.
